Common to all, as to assay: ELISA
In general terms: ELISA stands for enzyme-linked immunosorbent assay.

Experiment [1] concerns the target T1, human NPR1-ANP complex (human).
T1 chain 1: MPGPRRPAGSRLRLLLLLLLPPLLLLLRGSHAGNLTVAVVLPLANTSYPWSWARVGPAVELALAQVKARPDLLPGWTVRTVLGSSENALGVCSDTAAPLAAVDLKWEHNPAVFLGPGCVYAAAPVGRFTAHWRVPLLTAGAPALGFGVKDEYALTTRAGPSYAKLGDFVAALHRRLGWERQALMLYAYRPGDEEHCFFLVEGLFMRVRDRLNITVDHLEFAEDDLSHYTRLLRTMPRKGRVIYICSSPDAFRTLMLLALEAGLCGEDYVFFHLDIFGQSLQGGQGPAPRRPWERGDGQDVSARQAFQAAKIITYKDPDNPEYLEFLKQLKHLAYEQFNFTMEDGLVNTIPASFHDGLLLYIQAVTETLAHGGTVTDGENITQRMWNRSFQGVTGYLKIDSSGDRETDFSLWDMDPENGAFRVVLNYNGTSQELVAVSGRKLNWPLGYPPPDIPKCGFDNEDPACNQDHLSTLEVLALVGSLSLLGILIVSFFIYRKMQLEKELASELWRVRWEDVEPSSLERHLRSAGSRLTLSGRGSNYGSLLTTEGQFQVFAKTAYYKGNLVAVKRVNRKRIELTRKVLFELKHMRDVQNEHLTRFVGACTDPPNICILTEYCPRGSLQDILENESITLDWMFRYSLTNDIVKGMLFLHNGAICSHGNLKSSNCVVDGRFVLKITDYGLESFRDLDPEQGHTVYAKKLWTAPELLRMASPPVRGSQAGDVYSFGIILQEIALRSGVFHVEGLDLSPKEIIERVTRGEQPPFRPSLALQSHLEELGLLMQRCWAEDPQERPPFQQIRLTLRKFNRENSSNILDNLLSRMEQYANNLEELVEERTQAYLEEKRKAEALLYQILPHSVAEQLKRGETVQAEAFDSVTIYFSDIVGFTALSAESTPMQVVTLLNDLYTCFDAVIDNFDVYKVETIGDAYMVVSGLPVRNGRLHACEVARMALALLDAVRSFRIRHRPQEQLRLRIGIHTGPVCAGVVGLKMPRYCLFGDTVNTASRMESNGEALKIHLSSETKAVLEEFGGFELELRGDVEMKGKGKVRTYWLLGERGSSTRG
T1 chain 2: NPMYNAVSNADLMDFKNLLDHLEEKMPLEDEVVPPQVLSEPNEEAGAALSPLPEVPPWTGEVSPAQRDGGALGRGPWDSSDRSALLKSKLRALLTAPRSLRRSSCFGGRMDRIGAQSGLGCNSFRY

The target in experiment [2] is T2, human NPR1 W74R + ANP (human).
T2 chain 1: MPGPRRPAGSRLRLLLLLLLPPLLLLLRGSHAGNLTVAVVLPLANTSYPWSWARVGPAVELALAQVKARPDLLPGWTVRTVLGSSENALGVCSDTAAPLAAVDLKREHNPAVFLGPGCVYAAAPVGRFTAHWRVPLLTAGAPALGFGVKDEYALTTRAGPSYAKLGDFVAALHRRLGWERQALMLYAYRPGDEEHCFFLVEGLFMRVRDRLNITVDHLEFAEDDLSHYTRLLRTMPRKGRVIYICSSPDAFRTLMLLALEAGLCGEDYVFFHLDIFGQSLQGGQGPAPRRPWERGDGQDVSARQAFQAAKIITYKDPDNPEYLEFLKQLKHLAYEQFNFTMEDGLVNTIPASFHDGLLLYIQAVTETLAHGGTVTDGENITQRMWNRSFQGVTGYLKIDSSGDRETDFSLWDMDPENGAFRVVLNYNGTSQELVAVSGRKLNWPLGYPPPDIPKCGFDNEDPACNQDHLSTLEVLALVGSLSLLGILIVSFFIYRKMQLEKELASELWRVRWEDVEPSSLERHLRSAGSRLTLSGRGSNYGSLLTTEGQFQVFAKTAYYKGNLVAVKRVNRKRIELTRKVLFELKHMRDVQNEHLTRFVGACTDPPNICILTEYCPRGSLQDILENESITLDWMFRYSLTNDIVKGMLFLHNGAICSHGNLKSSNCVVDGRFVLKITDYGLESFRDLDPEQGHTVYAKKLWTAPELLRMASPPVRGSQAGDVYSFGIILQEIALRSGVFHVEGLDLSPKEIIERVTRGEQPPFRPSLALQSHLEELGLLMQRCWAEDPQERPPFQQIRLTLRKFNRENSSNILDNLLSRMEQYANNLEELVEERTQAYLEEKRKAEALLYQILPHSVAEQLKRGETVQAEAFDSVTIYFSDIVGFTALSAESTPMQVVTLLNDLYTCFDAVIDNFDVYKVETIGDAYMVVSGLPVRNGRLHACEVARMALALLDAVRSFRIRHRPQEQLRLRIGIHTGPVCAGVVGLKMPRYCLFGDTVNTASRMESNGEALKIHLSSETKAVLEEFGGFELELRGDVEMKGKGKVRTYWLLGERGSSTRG
T2 chain 2: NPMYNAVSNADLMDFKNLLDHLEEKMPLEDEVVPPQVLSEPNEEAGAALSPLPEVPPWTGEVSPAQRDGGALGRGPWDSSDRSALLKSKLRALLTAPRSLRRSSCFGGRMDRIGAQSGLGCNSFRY

Experiment [3] concerns the target T3, human NPR1 W74R (human).
T3 chain: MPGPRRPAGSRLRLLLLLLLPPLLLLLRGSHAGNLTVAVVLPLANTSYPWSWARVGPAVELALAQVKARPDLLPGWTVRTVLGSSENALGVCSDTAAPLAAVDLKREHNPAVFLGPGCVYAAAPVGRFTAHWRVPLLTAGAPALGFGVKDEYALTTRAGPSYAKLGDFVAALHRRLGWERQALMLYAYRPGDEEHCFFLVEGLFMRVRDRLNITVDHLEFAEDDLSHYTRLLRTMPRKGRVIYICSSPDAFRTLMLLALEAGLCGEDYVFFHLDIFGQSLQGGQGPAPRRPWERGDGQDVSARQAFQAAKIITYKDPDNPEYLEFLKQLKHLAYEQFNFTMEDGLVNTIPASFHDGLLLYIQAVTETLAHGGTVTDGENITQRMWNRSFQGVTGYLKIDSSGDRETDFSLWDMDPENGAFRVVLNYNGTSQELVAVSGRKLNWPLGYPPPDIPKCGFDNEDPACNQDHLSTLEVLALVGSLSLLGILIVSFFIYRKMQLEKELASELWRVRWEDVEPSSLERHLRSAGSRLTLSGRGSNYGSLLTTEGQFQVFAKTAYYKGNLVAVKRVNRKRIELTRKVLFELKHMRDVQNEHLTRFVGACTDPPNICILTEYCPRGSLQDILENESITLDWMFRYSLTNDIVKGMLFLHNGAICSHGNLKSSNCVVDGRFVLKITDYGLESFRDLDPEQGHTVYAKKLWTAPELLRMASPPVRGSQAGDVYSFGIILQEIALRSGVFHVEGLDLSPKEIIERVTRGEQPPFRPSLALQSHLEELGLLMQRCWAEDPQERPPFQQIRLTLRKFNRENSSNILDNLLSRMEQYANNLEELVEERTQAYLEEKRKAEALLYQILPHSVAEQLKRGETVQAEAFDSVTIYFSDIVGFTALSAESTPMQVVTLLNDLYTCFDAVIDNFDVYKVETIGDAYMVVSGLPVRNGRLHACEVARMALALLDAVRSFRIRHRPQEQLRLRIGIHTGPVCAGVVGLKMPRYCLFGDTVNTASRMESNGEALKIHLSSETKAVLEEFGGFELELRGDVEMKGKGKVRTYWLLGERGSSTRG

Experiment [4] addresses T4, human NPR3 (human, UniProt P17342).
T4 chain: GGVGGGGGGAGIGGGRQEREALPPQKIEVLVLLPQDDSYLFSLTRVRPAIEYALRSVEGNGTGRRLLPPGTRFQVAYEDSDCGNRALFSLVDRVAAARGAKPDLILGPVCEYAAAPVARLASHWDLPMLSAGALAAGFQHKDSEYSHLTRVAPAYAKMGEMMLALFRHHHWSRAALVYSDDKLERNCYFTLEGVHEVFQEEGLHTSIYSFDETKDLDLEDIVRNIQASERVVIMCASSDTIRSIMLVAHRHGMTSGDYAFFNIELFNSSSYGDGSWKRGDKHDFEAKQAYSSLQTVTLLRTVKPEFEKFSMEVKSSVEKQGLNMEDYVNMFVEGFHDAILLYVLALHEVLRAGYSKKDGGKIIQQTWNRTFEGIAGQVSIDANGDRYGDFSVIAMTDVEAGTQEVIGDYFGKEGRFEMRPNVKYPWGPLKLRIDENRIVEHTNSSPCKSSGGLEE

B1: WW06 IgG (antibody, V domains shown)
VH: QVQLVQSGAEVKKPGESLKISCKGSGYSFTSYWIAWVRQMPGKGLEWMGRIDPDNSYTRYSPSFQGQVTISADKSISTAYLQWSSLKASDTAMYYCARWLSPGYALGEQPAGMDHWGQGTLVTVSS
VL: DIVLTQPPSVSGAPGQRVTISCTGSSSNIGAGYAVHWYQQLPGTAPKLLIYSNNKRPSGVPDRFSGSKSGTSASLAITGLQAEDEADYYCQSYDLQKSSRVFGGGTKLTVL
Take B1: the results for the EC50 in experiment [1], in experiment [2] and in experiment [3] were 1.1 nM, 0.8 nM and 0.9 nM, respectively. In addition, in experiment [4], the binding result is listed as “no binding”.

For the origin of these results see US20230365674 (published 2023).
